Earlier results, collected in PMC3201939.

Biological target: Cys22 (UniProt position 23, FIKPTCPYCRR)

Glutaredoxin 1 (Grx1, thioltransferase) (Homo sapiens)
pKa: 3.5
